From publication PMC9232636, “Insights into the mechanism of action of the arbitrium communication system in SPbeta phages” (Nature Communications, 2022)
Like-named read-outs stand apart in the source and are kept apart here.

What was measured:
[1] = molecular target: AimRKat (Bacillus phage Katmira (prophage of Bacillus subtilis KATMIRA1933)) (UniProt A0A7G5CHT1); test: BLI; settings: BLI: PBS (0.01% Tween, 0.1% BSA for hydration, baseline and dissociation), AimR 0.015-2.5 uM, temperature not stated; EMSA: 50 mM Tris pH 8, 250 mM NaCl, room …
[2] = molecular target: AimR from Katmira phage (AimR^Kat) (Katmira phage (resident phage of Bacillus subtilis subsp. KATMIRA1933)); test: SEC-MALS; apo AimR^Kat, 50 μl at 5 mg/ml on KW-803 (Shodex); 25 mM Tris pH 8, 250 mM NaCl
[3] = molecular target: AimR from Katmira phage (AimR^Kat) (Katmira phage (resident phage of Bacillus subtilis subsp. KATMIRA1933)); test: SEC-MALS; AimR^Kat with 1 mM AimP^Kat peptide in the injected sample and 1 μM peptide in the running buffer; 5 mg/ml, KW-803 (Shodex); 25 mM Tris pH 8, 250 mM NaCl
[4] = molecular target: AimR from Katmira phage (AimR^Kat) (Katmira phage (resident phage of Bacillus subtilis subsp. KATMIRA1933)); test: thermal shift assay (ThermoFluor); 20 μM protein, 5× Sypro Orange, 0.5 μM peptide as printed; 20 mM Tris pH 8, 250 mM NaCl; 25 to 85 °C
[5] = molecular target: AimR from Katmira phage (AimR^Kat) (Katmira phage (resident phage of Bacillus subtilis subsp. KATMIRA1933)); test: ITC; Nano ITC Low Volume; protein 10 μM, peptide 50 μM; 25 mM Tris-HCl pH 8, 250 mM NaCl; 25 °C; biphasic thermograms fitted to a two-binding site model, one site per monomer of the AimR dimer
[6] = molecular target: AimR^Kat-N273A (Katmira phage (resident phage of Bacillus subtilis subsp. KATMIRA1933)); test: as above
AimRSPb-I (untagged) [7] = molecular target: T1, AimRSPb-I (untagged) (Bacillus phage SPbeta, UniProt O64094 1-386); test: BLI; BLI: PBS (0.01% Tween, 0.1% BSA for hydration, baseline and dissociation), AimR 0.015-2.5 uM, temperature not stated; EMSA: 50 mM Tris pH 8, 250 mM NaCl, room temperature 10 min, 0.5 uM peptide, gel at 4 C; settings: protein: recombinant; tags: N-terminal His tag removed; chain copies: 2
T1 sequence: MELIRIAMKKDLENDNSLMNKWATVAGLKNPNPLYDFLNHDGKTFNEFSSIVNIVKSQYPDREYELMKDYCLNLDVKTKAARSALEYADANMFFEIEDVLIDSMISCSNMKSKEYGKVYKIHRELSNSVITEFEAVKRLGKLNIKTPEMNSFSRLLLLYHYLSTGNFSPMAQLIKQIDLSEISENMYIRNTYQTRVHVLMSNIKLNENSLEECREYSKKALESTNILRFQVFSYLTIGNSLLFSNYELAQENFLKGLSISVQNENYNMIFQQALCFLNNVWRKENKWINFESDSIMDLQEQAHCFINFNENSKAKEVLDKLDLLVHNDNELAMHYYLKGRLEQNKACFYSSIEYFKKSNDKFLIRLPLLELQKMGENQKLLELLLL

[8] = molecular target: T2, AimRSPb-II (C-terminal His tag) (Bacillus phage SPbeta (B. subtilis 168 …, UniProt O64094 1-386)); test: as above; settings: protein: recombinant; chain copies: 2
T2 sequence: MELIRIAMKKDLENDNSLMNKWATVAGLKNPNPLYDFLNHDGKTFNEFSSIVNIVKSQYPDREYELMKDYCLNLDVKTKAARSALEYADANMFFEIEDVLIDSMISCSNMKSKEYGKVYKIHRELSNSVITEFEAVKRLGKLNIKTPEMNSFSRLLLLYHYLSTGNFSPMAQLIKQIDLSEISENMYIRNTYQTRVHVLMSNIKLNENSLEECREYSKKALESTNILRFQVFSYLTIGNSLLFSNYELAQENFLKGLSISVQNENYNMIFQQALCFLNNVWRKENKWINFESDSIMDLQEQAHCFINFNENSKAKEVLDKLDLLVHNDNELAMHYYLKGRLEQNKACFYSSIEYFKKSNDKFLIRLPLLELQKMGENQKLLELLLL

aimX-box^SPβ = test: Biolayer interferometry, AimR binding to aimX operator; parameters: species or system phage SPβ; settings: BLI
Experimental: (§1) The Binding affinity (KD), association (kon) and dissociation (koff) rate constants between AimRs and DNA were measured by biolayer interferometry (BLI) using the BLITz system (FortéBio). Biotinilated DNA probes (IDT) (Supplementary Table 3) were immobilised in Streptavidin biosensors (FortéBio) at 50 μg ml^−1. Biosensor hydration, baselines and dissociation analysis were carried out in phosphate buffer (PBS) supplemented with 0.01% tween and 0.1% BSA. Proteins were diluted in PBS. At least four different dilutions of AimR were used in a range between 0.015 and 2.5 μM. A blank using a chip without bounded DNA was used to subtract unspecific binding. Kinetic value calculations and data analysis were performed using BLItz Pro 1.2 software employing a 1:1 model to fit the data.

aimX-box^Kat = test: as above; parameters: species or system Katmira phage; settings: BLI, 1:1 model
Experimental: as §1

aimX-box^Phi = test: as above; parameters: species or system phage phi3T; key to kon / koff: NBD: not binding detected in the experimental conditions used. KD > 1 × 10^−6 M; settings: BLI, 1:1 model
Experimental: as §1

AimR^SPβ = test: Thermal shift assay of AimR^SPβ with and without C-terminal His-tag; assay type: physicochemical, phage SPβ
Experimental: The thermal shift assay was conducted in a 7500 Fast Real time PCR System (Applied Biosystems) as previously described. Briefly, samples of 20 μl buffer (20 mM Tris pH 8 and 250 mM NaCl) containing 5× Sypro Orange (Sigma-Aldrich) and 20 μM of protein were loaded in 96-well PCR plates. To calculate the Tm in the presence of the peptide, 0.5 μM of GMPRGA or GIVRGA peptide was added to the mixture. Samples were heated from 25 to 85 °C in steps of one degree. Fluorescent intensity was plotted versus temperature and integrated with GraphPad Prism software using a Boltzmann model to calculate melting temperatures.

AimRSPb-I (untagged) [9] = molecular target: T1, AimRSPb-I (untagged); test: EMSA; BLI: PBS (0.01% Tween, 0.1% BSA for hydration, baseline and dissociation), AimR 0.015-2.5 uM, temperature not stated; EMSA: 50 mM Tris pH 8, 250 mM NaCl, room temperature 10 min, 0.5 uM peptide, gel at 4 C; settings: protein: recombinant; tags: N-terminal His tag removed; chain copies: 2
[10] = molecular target: T3, AimR from B. subtilis phage SPβ (AimR^SPβ) (Bacillus subtilis phage SPβ) (UniProt O64094)
T3 sequence: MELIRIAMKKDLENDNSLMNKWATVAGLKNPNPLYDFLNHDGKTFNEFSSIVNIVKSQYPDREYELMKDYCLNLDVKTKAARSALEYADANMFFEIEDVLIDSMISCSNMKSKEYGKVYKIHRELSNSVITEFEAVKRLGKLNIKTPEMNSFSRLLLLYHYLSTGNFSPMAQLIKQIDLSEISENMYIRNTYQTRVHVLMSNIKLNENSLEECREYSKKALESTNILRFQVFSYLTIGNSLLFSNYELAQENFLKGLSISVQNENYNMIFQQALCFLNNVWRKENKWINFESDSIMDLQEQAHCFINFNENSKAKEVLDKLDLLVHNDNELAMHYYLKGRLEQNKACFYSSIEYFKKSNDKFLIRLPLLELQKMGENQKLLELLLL

[11] = molecular target: AimR^Kat-N273A (Katmira phage (resident phage of Bacillus subtilis subsp. KATMIRA1933)); test: ITC; Nano ITC Low Volume; protein 10 μM, peptide 50 μM; 25 mM Tris-HCl pH 8, 250 mM NaCl; 25 °C; biphasic thermograms fitted to a two-binding site model, one site per monomer of the AimR dimer; remark: listed apart in the source

Q: Which Kd [1] does the source give for “GGGAAAGTTCCAGAAATTCAAAAATCAAAAAATAAGAACATGGGG (double strand) [aimX-boxPhi BLI probe (DNA_Phi3T_b)]” here?
A: > 1000 nM

Q: How did the Kd [1] turn out when “GTTGATCACTTAAATATTAAGTTTTTATAACATCTAGTGATGGCC (double strand) [aimX-boxKat BLI probe (DNA_Kat_b)]” was run?
A: 23.1 nM

Q: With “AimR from Katmira phage (AimR^Kat) (receptor)” as the molecule, how does the stoichiometry N [2] read?
A: 2

Q: What about the stoichiometry N [3] of the same molecule?
A: 2

Q: Which results are given for “AimP^Kat, active (mature) Katmira AimP peptide GIVRGA”?
A: increment of the melting temperature (Tm) [4]: 20 °C; KD1 (monomer 1, two-binding site model) [5]: 4.1 nM; KD2 (monomer 2, two-binding site model) [5]: 5.7 nM; KD1 (monomer 1, two-binding site model) [6]: 194 nM; KD2 (monomer 2, two-binding site model) [6]: 356 nM

Q: Which Kd [1] does the source give for “GTTGATCACTTAAATATTAGGTTTTAATAACATCTAGTGATGGCC (double strand) [aimX-boxSPb BLI probe (DNA_SPb_b)]” here?
A: 21.4 nM

B1: aimX-boxSPb BLI probe (DNA_SPb_b) (dsDNA)
DNA 1: GTTGATCACTTAAATATTAGGTTTTAATAACATCTAGTGATGGCC
DNA 2: GGCCATCACTAGATGTTATTAAAACCTAATATTTAAGTGATCAAC
Q: For B1, which Kd (AimRSPb-I (untagged) [7]) is on record?
A: 19.3 nM

Q: And the Kd [8]?
A: 116 nM

B2: aimX-boxKat BLI probe (DNA_Kat_b) (dsDNA)
DNA 1: GTTGATCACTTAAATATTAAGTTTTTATAACATCTAGTGATGGCC
DNA 2: GGCCATCACTAGATGTTATAAAAACTTAATATTTAAGTGATCAAC
Q: What does the source list for B2?
A: Kd (AimRSPb-I (untagged) [7]): 19.6 nM; Kd [8]: 116 nM

B3: AimR^SPβ-I: AimR^SPβ receptor without tags (protein)
chain: MELIRIAMKKDLENDNSLMNKWATVAGLKNPNPLYDFLNHDGKTFNEFSSIVNIVKSQYPDREYELMKDYCLNLDVKTKAARSALEYADANMFFEIEDVLIDSMISCSNMKSKEYGKVYKIHRELSNSVITEFEAVKRLGKLNIKTPEMNSFSRLLLLYHYLSTGNFSPMAQLIKQIDLSEISENMYIRNTYQTRVHVLMSNIKLNENSLEECREYSKKALESTNILRFQVFSYLTIGNSLLFSNYELAQENFLKGLSISVQNENYNMIFQQALCFLNNVWRKENKWINFESDSIMDLQEQAHCFINFNENSKAKEVLDKLDLLVHNDNELAMHYYLKGRLEQNKACFYSSIEYFKKSNDKFLIRLPLLELQKMGENQKLLELLLL
Q: B3 was tested. Which Kd (aimX-box^SPβ; BLITz, streptavidin biosensor with biotinylated DNA, PBS, 1:1 model, mean of five measurements, read-out: KD) did it give?
A: 19.3 nM

Q: What about the koff (aimX-box^SPβ; PBS + 0.01% tween and 0.1% BSA, 1:1 model) of the same molecule?
A: 0.0726 ± 0.00229 s⁻¹

Q: And the kon (aimX-box^SPβ; PBS, 1:1 model)?
A: 3.75e+06 ± 324000 M⁻¹ s⁻¹

Q: What about the Kd (aimX-box^SPβ; peer review file, stated jointly for aimX-box^SPβ and aimX-box^Kat, read-out: affinity (KD)) of the same molecule?
A: 19 nM

Q: What about the Kd (aimX-box^Kat; BLITz, streptavidin biosensor with biotinylated DNA, PBS, mean of five measurements) of the same molecule?
A: 19.6 nM

Q: What about the koff (aimX-box^Kat; PBS + 0.01% tween and 0.1% BSA) of the same molecule?
A: 0.078 ± 0.0025 s⁻¹

Q: What about the kon (aimX-box^Kat; PBS) of the same molecule?
A: 3.98e+06 ± 427000 M⁻¹ s⁻¹

Q: What about the Kd (aimX-box^Phi; BLITz, PBS, AimR 0.015-2.5 μM) of the same molecule?
A: > 1000 nM

Q: And the koff (aimX-box^Phi; PBS + 0.01% tween and 0.1% BSA)?
A: NBD^d

Q: And the kon (aimX-box^Phi; PBS)?
A: NBD^d

Q: What about the Tm (AimR^SPβ; 20 mM Tris pH 8, 250 mM NaCl, 20 μM protein, no peptide) of the same molecule?
A: 53.6 °C

Q: And the Tm (AimR^SPβ; Supplementary Fig. 5b, in °C (unit assumed))?
A: 53.6 ± 0.7

B4: aimX-boxPhi EMSA probe (DNA_Phi3T) (dsDNA)
DNA 1: GTTGATGTTCCAGAAATTCAAAAATCAAAAAATAAGAACATGGCC
DNA 2: GGCCATGTTCTTATTTTTTGATTTTTGAATTTCTGGAACATCAAC
Q: Does B4 bind (AimRSPb-I (untagged) [9])?
A: no binding

Q: Which results are given for GMPRGA [AimP^SPβ, the SPβ AimP peptide GMPRGA]?
A: phage titre (PFU/ml) after mitomycin C induction of the SPβ ΔaimR prophage complemented with AimR^SPβ, 5 μM peptide added (times (reduction of the titre)) [10]: 10; KD1 (monomer 1, two-binding site model) [11]: 1.3 µM; KD2 (monomer 2, two-binding site model) [11]: 1.6 µM
